How the values were obtained:
human IgE (U266 IgE) [1] = molecular target: T1, human IgE (U266 IgE) (human, UniProt P01854 1-546); test: 50% inhibition of IgE binding to FCEH (assay taken as that of Table 9)
T1 construct: mature; Purified from U266B1 cells or recombinant from 293 cells; the Scatchard assay used iodinated IgE of ND and PS allotypes; P01854 covers the constant region only; also called huIgE; U266 IgE standard
Protocol: (§1) A 96-well assay plate (Manufn Nunc.) was coated with 0.05 ml of the FcεRI alpha chain IgG1 chimeric receptor in 1 μg/ml coating buffer ([…] carbonate/bicarbonate, pH 9.6). Assay was done for 12 hours at 4-8° C. The wells were aspirated and 250 μl blocking buffer (PBS—1% BSA pH 7.2) was added and incubated for one hour at 4° C. […] The FcεRI-coated wells were washed three times with PBS-0.05% Tween20, and then 50 μl from the sample wells were transferred and incubated with agitation for 30 minutes at 25° C. 50 μl/well of streptavidin-HRP diluted 1:5000 in assay buffer was incubated for 15 minutes with agitation and then the plate was washed as before. 50 μl/well of Microwell peroxidase substrate (Kirkgaard & Parry Laboratories) was added and color was developed for 30 minutes. The reaction was stopped by adding an equal volume of 1 normal HCl and the adsorbance measured at 450 nm.

[2] = molecular target: FCEH-bound IgE (human IgE held on FcεRI) (human, UniProt P01854 1-546; P12319 26-257); test: cell-based or functional assay
human IgE (U266 IgE) [3] = molecular target: T1, human IgE (U266 IgE); test: ratio of 50% inhibition concentrations
Protocol: as §1

[4] = molecular target: T2, membrane IgE on U266 B1 cells (human, UniProt P01854 1-546); test: FACS on U266 B1 cells (membrane IgE+)
T2 construct: whole, on cells; also called Membrane IgE on U266BL; mIgE
Protocol: c. […] Cells are added to 400 μl FACS buffer containing propidium iodide at 2 μg/ml to stain dead cells.

T1 sequence (P01854 whole entry): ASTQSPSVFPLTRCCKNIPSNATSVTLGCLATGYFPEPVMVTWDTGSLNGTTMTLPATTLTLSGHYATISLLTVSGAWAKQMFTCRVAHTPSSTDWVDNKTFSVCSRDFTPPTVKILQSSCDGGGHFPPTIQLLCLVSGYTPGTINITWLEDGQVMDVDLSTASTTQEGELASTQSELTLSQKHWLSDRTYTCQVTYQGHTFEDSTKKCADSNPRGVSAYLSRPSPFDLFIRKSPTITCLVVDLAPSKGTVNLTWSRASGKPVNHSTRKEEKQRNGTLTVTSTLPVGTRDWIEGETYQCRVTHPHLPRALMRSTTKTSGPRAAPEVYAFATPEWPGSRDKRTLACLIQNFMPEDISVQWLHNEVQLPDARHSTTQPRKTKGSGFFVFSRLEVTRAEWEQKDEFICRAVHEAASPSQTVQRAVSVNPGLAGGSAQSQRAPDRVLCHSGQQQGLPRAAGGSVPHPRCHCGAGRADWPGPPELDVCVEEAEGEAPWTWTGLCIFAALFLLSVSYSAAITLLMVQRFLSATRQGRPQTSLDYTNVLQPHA
Sequence of FCEH-bound IgE (human IgE held on FcεRI) (P01854 whole entry, chain 1 of 2): as the sequence (P01854 whole entry) above
Sequence of FCEH-bound IgE (human IgE held on FcεRI) (P12319 26-257, chain 2 of 2): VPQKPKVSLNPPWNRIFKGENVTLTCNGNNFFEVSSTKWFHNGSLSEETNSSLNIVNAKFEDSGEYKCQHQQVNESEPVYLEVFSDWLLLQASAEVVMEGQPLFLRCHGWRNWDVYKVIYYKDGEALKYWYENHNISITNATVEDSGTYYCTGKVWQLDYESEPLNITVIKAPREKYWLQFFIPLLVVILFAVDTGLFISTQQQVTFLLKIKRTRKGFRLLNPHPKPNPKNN
T2 sequence (P01854 whole entry): as the sequence (P01854 whole entry) above

IC50 (human IgE (U266 IgE) [1])	PBL Histamine Release (EC50) [2]	Var. X / IgL1H1 (human IgE (U266 IgE) [3])	Var. X / MaE11 (human IgE (U266 IgE) [3])	EC50 [4]	Binder
0.449 µg/mL	> 100 µg/mL	0.06 ratio	1 ratio	0.15 µg/mL	MaE 11 murine anti-human IgE monoclonal antibody (antibody, murine IgG1; they may hold only the variable regions) heavy: DVQLQESGPGLVKPSQSLSLACSVTGYSITSGYSWNWIRQFPGNKLEWMGSITYDGSSNYNPSLKNRISVTRDTSQNQFFLKLNSATAEDTATYYCARGSHYFGHWHFAVWGAGTTVTVSSAKTTPPSVYPLAR light: DIVLTQSPASLAVSLGQRATISCKASQSVDYDGDSYMNWYQQKPGQPPILLIYAASYLGSEIPARFSGSGSGTDFTLNIHPVEEEDAATFYCQQSHEDPYTFGAGTKLEIK
–	> 10 µg/mL	–	–	1 µg/mL	MaE 13 murine anti-human IgE monoclonal antibody (antibody, murine IgG1; may hold only the variable regions) heavy: DVQLQESGPGLVKPSQSLSLTCTVTGYTITSDNAWNWIRQFPGNKLEWMGYINHSGTTSYNPSLKSRISITRDTSKNQFFLQLNSVTTEDTATYYCAWVVAYAMDYWGQGTSVTVSSAKTTPPSVYPLAR light: DIVMTQSQKFMSTSVGDRVSVTCKASQNVSSNVAWYQQKPGQSPKALIYSASYRYSGVPDRFTGSGSGTDFTLTISNVQSEDLAEYFCQQYYTYPLYTFGGGTKLEIKRADAAPTVSIFPPSTR

— patent US20030044858A1 (Genentech, published 2003)
